Changes are numbered by the printed parent chain.
T1: human iRhom2 (inactive rhomboid protein 2, isoform 1), endogenously expressed on human cells (human, UniProt Q6PJF5 1-856)
T1 sequence: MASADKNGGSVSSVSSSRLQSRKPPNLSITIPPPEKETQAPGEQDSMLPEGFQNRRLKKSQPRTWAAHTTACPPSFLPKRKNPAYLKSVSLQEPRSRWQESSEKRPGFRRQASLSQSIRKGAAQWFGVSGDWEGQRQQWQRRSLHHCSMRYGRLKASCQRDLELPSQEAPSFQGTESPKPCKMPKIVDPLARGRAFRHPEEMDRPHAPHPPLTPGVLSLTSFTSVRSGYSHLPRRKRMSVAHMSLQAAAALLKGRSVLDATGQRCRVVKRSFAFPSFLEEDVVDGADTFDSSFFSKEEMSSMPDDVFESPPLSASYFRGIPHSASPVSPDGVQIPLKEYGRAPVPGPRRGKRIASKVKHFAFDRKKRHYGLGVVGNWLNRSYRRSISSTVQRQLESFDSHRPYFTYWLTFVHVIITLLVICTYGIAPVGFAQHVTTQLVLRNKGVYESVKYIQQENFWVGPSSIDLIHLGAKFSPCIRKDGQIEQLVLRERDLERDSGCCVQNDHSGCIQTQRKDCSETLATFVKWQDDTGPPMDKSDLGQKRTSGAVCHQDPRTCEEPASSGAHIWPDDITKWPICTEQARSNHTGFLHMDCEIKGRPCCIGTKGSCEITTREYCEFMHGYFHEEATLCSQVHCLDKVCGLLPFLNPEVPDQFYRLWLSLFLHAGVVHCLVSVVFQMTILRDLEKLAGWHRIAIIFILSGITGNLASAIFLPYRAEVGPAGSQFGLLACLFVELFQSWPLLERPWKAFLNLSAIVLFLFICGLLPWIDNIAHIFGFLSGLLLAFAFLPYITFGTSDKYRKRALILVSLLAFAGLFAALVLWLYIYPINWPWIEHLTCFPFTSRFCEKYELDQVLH

T2: dog iRhom2 full length wild type, C-terminally tagged with 3 consecutive copies of the T7 epitope (dog, UniProt Q00M95 1-827)
T2 construct: whole, on cells; also called Dog-iR2-FL-WT-T7
T2 sequence: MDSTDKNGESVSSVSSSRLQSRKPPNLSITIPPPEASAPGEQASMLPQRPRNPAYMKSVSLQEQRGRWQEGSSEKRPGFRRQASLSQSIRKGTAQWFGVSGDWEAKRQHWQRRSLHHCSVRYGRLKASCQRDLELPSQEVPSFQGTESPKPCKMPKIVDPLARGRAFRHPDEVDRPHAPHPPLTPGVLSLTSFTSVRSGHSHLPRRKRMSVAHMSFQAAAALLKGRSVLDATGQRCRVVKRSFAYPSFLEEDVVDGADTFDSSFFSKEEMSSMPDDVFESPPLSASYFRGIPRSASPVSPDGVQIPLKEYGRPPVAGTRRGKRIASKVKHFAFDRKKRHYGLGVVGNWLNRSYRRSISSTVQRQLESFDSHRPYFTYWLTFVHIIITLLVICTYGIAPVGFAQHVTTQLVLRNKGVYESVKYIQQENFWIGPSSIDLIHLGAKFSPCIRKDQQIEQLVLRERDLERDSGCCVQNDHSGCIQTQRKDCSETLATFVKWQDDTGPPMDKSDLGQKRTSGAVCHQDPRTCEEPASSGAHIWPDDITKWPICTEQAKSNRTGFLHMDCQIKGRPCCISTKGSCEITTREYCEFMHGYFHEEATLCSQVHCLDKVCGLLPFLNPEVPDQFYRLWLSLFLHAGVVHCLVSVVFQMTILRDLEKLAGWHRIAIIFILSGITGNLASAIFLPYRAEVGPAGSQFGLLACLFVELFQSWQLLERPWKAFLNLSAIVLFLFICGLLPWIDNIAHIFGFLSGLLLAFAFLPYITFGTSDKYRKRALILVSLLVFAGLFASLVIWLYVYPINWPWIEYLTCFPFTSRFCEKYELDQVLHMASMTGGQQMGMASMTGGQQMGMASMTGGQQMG

T3: human iRhom1, endogenously expressed on RH-30 cells (human, UniProt Q96CC6 1-855)
T3 construct: RH-30 cells are described as endogenously negative for iRhom2 but endogenously expressing iRhom1; also called NP_071895.3
T3 sequence: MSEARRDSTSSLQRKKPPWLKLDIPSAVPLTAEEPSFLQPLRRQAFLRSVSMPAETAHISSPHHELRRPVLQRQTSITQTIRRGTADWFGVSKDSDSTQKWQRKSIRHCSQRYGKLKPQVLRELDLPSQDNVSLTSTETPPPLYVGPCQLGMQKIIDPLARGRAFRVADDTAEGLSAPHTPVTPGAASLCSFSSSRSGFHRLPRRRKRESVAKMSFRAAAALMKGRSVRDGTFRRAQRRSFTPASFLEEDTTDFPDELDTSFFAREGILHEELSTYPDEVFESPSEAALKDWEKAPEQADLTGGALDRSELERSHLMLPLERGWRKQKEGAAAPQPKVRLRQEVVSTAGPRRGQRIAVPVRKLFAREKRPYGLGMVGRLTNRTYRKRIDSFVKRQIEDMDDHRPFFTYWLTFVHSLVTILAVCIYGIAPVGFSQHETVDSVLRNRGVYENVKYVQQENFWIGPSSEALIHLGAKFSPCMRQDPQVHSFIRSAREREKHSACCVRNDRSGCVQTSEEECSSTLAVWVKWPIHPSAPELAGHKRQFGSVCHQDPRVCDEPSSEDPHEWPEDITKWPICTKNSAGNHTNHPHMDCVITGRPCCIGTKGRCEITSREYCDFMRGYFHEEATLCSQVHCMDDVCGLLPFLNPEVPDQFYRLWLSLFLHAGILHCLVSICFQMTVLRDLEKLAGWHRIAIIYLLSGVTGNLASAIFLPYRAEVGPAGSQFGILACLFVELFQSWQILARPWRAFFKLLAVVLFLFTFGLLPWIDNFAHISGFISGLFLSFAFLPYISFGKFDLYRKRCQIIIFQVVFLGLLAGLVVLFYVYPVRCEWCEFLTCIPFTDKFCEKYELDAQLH

B1: chimeric version of antibody 22 (antibody, V domains shown)
VH: QVTLKESGPGILQPSQTLSLTCSFSGFSLSTFGMGVGWIRQPSGKGLEWLAHIWWDDEKYYNSALKSRLTISKATSKNQVFLKIANVDTADTATYYCARISNYGSNYWYFNVWGTGTTVTVSS
VL: QVVLTQSPALMSASPGEKVTMTCSAGSSVSYMYWYQQKPGSSPRVLIYDTSNLASGVPARFTGSGSGTSYSLTISRMEAEDAATYYCQQWNSYPLTFGAGTKLELK
B2: chimeric version of antibody 44 (antibody, V domains shown)
VH: B1 VH with G44E, E58D, S63P, A74D, V80I, A85T, D91E, A98S, S101G, N111D
VL: B1 VL with V2I, L10V, S24T, G26S, S30Y, K38T, V45L, A59V, T62S, S92T
B3: chimeric version of antibody 42 (antibody, V domains shown)
VH: B1 VH with F24L, M34R, S63P, A74D, K83R, S101Q, N111D
VL: LIVLTQSPAIMSASPGEKVTMTCGATSRISYMFWYQQKPGSSPRVLIYDTSNLASGVPVRFSGSGSGTSYSLTISRVEAEDVATYYCQQWNSYPLTFGAGTKLELK
B4: chimeric version of antibody 34 (antibody, V domains shown)
VH: QVTLKESGPGILQPSQTLSLTCSFSGFSLSTFSLGVGWIRQSSGKGLEWLAHIWWDDEKYYNPALKSRLTISKDTSKNQVFLKIANVDAADTATYYCARAYYSKSYYALDYWGQGTSVTVSS
VL: DIQMTQSPSSLSASLGERVSLTCRASQEISGYLSWLQQKPDGTIKRLIYAASTLDSGVPKRFSGSRSGSDYSLAISSLESEDFADYYCLQYANFPFTFGSGTKLEIK
B5: chimeric version of antibody 16 (antibody, V domains shown)
VH: QVTLKESGPGILQPSQTLSLTCSFSGFSLSTFALGVGWIRQPSGRGLEWLAHIWWDDDKYYNPALKSRLTISKDTSKNHVFLKIANVDTADTATYYCARITTYYYGMDYWGQGTSVTVSS
VL: DIVLSQSPATLSVTPGDSVSLFCRASQSIGNHLHWYQQESHASPRLLIKYASQSISGIPSRFSGSGSGTDFTLSINSVETEDFGMYFCQQSYNWPLTFGAGTKLELK
notes: Chimeric version made in CHO cells, detected with anti-human IgG; the variable domains are those of clone #16; also called ch16

What follows are binders tested against T1, human iRhom2 (inactive rhomboid protein …) (assay: cell-based or functional assay).

Binder | inhibition of LPS-induced release of TNFα from PBMCs of rheumatoid arthritis patients, 1 µg/ml, chimeric antibody [% inhibition] | inhibition of PMA-induced release of HB-EGF from PBMCs of rheumatoid arthritis patients, 1 µg/ml, chimeric antibody [% inhibition] | inhibition of PMA-induced release of HB-EGF from THP-1 cells, 3 µg/ml [% inhibition] | inhibition of PMA-induced release of HB-EGF from U-937 cells [% inhibition] | inhibition of PMA-induced release of IL-6R from PBMCs of rheumatoid arthritis patients, 1 µg/ml, chimeric antibody [% inhibition] | inhibition of PMA-induced release of IL-6R from U-937 cells, 3 µg/ml [% inhibition] | inhibition of PMA-induced release of TNFα from U-937 cells, 3 µg/ml [% inhibition]
B1 | 76.5 | 54.7 | 81.9 | 103 | 61.1 | 85.6 | 96.5
B2 | 70.2 | 37.8 | 70.7 | 99.2 | 53.1 | 85.2 | 89.2
B3 | 82.1 | 76.1 | 80.8 | 103 | 73.5 | 91.8 | 96.5
B4 | 66.6 | 30.6 | 76.1 | 98.1 | 45.6 | 82.8 | 87.4
B5 | 83.6 | 66 | 73.6 | 101 | 72.3 | 84.3 | 93.7

These binders were tested against T2, dog iRhom2 full length wild type, … (assay: FACS on MEF-DKO-iR2 Dog cells, 3 µg/ml).
Protocol: In brief, immortalized MEF-DKO-EV control cells, MEF-DKO-rhesus-iR2-FL-WT-T7 cells, MEF-DKO-cyno-iR2-FL-WT-T7 cells, MEF-DKO-dog-iR2-FL-WT-T7 cells and MEF-DKO-rabbit-iR2-FL-WT-T7 cells, as well as their respective iRhom1 counterparts, were harvested with 10 mM EDTA in PBS, washed and resuspended in FACS buffer (PBS, 3% FBS, 0.05% sodium azide), and seeded in Nunc U-bottom 96-well plates (Thermo Fisher Scientific, USA) at approximately 3×10⁵ cells per well. To pellet cells and remove supernatants, the plates were centrifuged at 1,500 rpm and 4° C. for 3 minutes. For primary staining, cells were resuspended in 100 μl per well of either FACS buffer alone (controls), mouse monoclonal anti-T7 IgG (Merck Millipore, USA) at 3 μg/ml FACS buffer or the antibodies of the present disclosure also at 3 μg/ml FACS buffer and incubated on ice for 1 hour. Afterwards, plates were centrifuged at 1,500 rpm and 4° C. for 3 minutes and washed twice with 200 μl per well of FACS buffer. For secondary staining, cells were spun down and resuspended in 100 μl per well of PE-conjugated goat anti-mouse IgG F(ab′)2 detection fragment (Dianova, Germany) diluted 1:100 in FACS buffer. Protected from light, the cell suspensions were incubated on ice for 1 hour. […] Finally, cells were resuspended in 150 μl per well of FACS buffer and analyzed using a BD Accuri™ C6 Plus flow cytometer (Becton Dickinson, Germany).

Binder | binding result
B5 | binds

These binders were tested against T3, human iRhom1, endogenously expressed on … (assay: FACS on RH-30 cells (iRhom1-positive, not iRhom2-positive)).

Binder | binding result
B5 | no binding (tested: 3 µg/ml)

Reference: patent publication US20240174744A1 (SCIRHOM, published 2024)
